Positions count from the first letter of the chain named. Where “and” joins values, the source holds several entries; their conditions need not be identical. Equal values may be shown once. Values belong to the binder of their own block, whether it stands above or below them.
Tests used:
[1] = molecular target: Human IL-23 with linker (human) (UniProt P29460); assay: SPR, ProteOn XPR36, global 1:1 fit
[2] = molecular target: recombinant human IL-23 (human) (UniProt P29460); assay: cell-based or functional assay
[3] = molecular target: natural human IL-23 from activated THP-1 cells (human) (UniProt P29460); assay: cell-based or functional assay
[4] = molecular target: cynomologous IL-23 (cynomolgus monkey); assay: SPR, ProteOn XPR36, global 1:1 fit
[5] = molecular target: Human IL-23 no linker (human) (UniProt P29460); assay: SPR, ProteOn XPR36, global 1:1 fit
Chain of Human IL-23 no linker (human) (chain, as listed by the source limits assumed, chain 1 of 2): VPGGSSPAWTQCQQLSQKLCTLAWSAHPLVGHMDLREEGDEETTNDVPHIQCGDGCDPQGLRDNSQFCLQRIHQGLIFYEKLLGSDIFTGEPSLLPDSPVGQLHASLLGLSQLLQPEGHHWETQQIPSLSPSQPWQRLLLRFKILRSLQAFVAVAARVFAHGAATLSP
Chain of Human IL-23 no linker (human) (P29460 23-328 limits assumed, chain 2 of 2): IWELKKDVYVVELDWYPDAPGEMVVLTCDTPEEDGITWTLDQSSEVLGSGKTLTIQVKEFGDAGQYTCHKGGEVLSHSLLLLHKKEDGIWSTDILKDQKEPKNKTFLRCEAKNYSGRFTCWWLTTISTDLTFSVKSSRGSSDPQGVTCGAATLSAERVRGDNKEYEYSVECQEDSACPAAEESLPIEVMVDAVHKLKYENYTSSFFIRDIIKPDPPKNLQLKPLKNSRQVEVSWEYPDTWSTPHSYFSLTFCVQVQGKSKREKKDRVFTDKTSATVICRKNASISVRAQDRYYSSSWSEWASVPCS

Chain of recombinant human IL-23 (human) (chain, as listed by the source limits assumed, chain 1 of 2): as the sequence (chain, as listed by the source limits assumed, chain 1 of 2) above
Chain of recombinant human IL-23 (human) (P29460 23-328 limits assumed, chain 2 of 2): as the sequence (P29460 23-328 limits assumed, chain 2 of 2) above
Chain of natural human IL-23 from activated THP-1 cells (human) (chain, as listed by the source limits assumed, chain 1 of 2): as the sequence (chain, as listed by the source limits assumed, chain 1 of 2) above
Chain of natural human IL-23 from activated THP-1 cells (human) (P29460 23-328 limits assumed, chain 2 of 2): as the sequence (P29460 23-328 limits assumed, chain 2 of 2) above

Kd [1]: < 0.001 nM
koff [1]: < 1e-06 s⁻¹
kon [1]: 356000 M⁻¹ s⁻¹
B1: Antibody B (antibody, human IgG1, kappa, L234A L235A, V domains shown)
VH: QVQLVQSGAEVKKPGSSVKVSCKASGFTFTDQTIHWVRQAPGQGLEWMGYIYPRDDSPKYNENFKGKVTLTADKSTSTAYMELSSLRSEDTAVYYCAIPDRSGYAWFIYWGQGTLVTVSS
VL: DIQMTQSPSSLSASVGDRVTITCKASRDVAIAVAWYQQKPGKVPKLLIYWASTRHTGVPSRFSGSGSRTDFTLTISSLQPEDVADYFCHQYSSYPFTFGSGTKLEIKR

Kd [1]: 0.107 nM
koff [1]: 4.07e-05 s⁻¹
kon [1]: 382000 M⁻¹ s⁻¹
B2: Antibody D (antibody, human IgG1, kappa, L234A L235A, V domains shown)
VH: B1 VH
VL: B1 VL with I48L, Y49F, S60D, R68G, V83L, F87Y, S100Q

IC50, IL-23 induced STAT3 phosphorylation in human DB cells (phospho-STAT3 ELISA) [2]: 0.163 nM and 0.438 nM
IC50, IL-23 stimulated IL-17 production from mouse splenocytes [3]: 0.093 nM and 0.044 nM
B3: antibody C1273 (disclosed in WO 2007/005955) (antibody, from another filing, V domains shown)
VH: DVNLVESGGGLVKPGGSLKLSCAASGFTFSSYTMSWVRQTPEKRLEWVATISSGGTYTYYPDSVKGRFTISRDNAKNTLYLQMSSLKSEDTAMFYCTRDNHAYDRGPFFDYWGQGATLTVSS
VL: DIVMSQSPSSLVVSVGEKVTMSCKSSQNLFYRSNQKNHLAWYQQKPGQSPTLLIYWTSTRESGVPDRFTGSGSGTDFTLTISRVKAEDLAVYYCQQYYSYPPTFGGGTKLEIK

Kd [4]: 0.157 nM
koff [4]: 0.000156 s⁻¹
kon [4]: 991000 M⁻¹ s⁻¹
Kd [5]: 0.214 nM
koff [5]: 0.000107 s⁻¹
kon [5]: 499000 M⁻¹ s⁻¹
IC50, IL-23 stimulated IL-17 production from mouse splenocytes [2]: 1.6 nM and 0.806 nM and 1.3 nM
B4: Antibody 6H12 (disclosed in WO 2007/027714) (antibody, from another filing, V domains shown)
VH: EVHLQQSGPELVKPGASVKMSCKASGYTFNRYLIHWVKQKPGQGLEWIGYINPNNDGTNYNEKFKGKATLTSDKSSSTAYMELSSLTSEDSAVYYCAANWDQAYWGQGTLVTVSA
VL: DIVMTQSPATLSVTPGDRVSLSCRASQSISDYLHWYQQKSHESPRLLIKYTSQSISGIPSRFSGSGSGSDFTLSINSVEPEDVGVYYCQNGHSFPFTFGSGTKLEIKR
